# Experiment: soluble on expression in E. coli; label from the status in PepcDB or PDB records
row,Sequence,soluble on expression in E. coli
1,MSLYQLEDDSLMLHNDLYQINMAESYWNDNIHEKMAVFDLYFRKMPFNSGYAVFNGLKRVIDFIEHFGFSESDLEYLKSIGYKDDFLSYLKDLKFTGSIRSMQEGELCFGNEPLLRVEAPLIQAQLIETILLNIVNFHTLITTKASRIRQIASNDKLMEFGTRRAQEIDAALWGARAAYIGGFDSTSNVRAGKLFGIPVSGTHAHAFVQTYGDEYVAFKKYAERHKNCVFLVDTFHTLKSGVPNAIKVAKELGDKINFVGIRLDSGDIAYLSKEARRMLDEAGFTETKIIASNDLDEETITSLKAQGAKVDSWGVGTKLITGYDQPALGAVYKLVAIENEEGSYSDRIKLSNNAEKVTTPGKKNVYRIINKKTGKAEGDYITLENENPYDEQPLKLFHPVHTYKMKFIKSFEAIDLHHNIYENGKLVYQMPTEDESREYLAQGLQSIWDENKRFLNPQEYPVDLSKACWDNKHKRIFEVAEHVKEMEEDNEEGHHHHHH,soluble
2,MSLYRVFEALDELSAIVEEARGVPMTAGCVVPRGDVLELIDDIKDAIPGELDDAQDVLDARDSMLQDAKTHADSMVSSATTEAESILNHARTEADRILSDAKAQADRMVSEARQHSERMVADAREEAIRIATAAKREYEASVSRAQAECDRLIENGNISYEKAVQEGIKEQQRLVSQNEVVAAANAESTRLVDTAHAEADRLRGECDIYVDNKLAEFEEFLNGTLRSVGRGRHQLRTAAGTHDYAVREGHHHHHH,soluble
3,MSLYTFKELKRATKQDTVSLPKLKVALLGDTATQLLATAIKGEGILRNYNIELWEAEYNQVERQIMDPTSDYYQFEPDYTIIFHSTHKLLEKHSLVNSDLQNKLADDRLDFVRLLCEQGIGRVIYYNYPEIEDTIWGSYATKVQSSFTYQLTKLNYELMNISQAYPNFFICNLAGISAKYGRNFMFDSSVYVNTEIILSLDALPIISSRTIDIIAAIQGKFKKCLILDLDNTIWGGVVGDDGWENIQVGHGLGIGKAFTEFQEWVKKLKNRGIIIAVCSKNNEGKAKEPFERNPEMVLKLDDIAVFVANWENKADNIRTIQRTLNIGFDSMVFLDDNPFERNMVREHVPGVTVPELPEDPGDYLEYLYTLNLFETASFSEDDKDRTKQYQIEAKRVSLQQSFTNEAEFLKSLDMVSEVKGFDKFNTPRVAQLSQRSNQFNLRTVRYTEAEIAAIESDLHYATFSFTLADRFGDNGLICVIILEKQDTETLFINTWFMSCRVLKRGMENFTLNTLVDYARSNGFKRFIGEYLPSAKNQMVEEHYPHLGFSKMEGGDNAARYVLDVEEGHHHHHH,not soluble
4,MSLYVSKLFTSQQWRELKLISYVTENADAIGVKDKELSKALNISMLTLQTCLTNMQFMKEVGGITYKNGYITIWYHQHCGLQEVYQKALRHSQSFKLLETLFFRDFNSLEELAEELFVSLSTLKRLIKKTNAYLTHTFGITILTSPVQVSGDEHQIRLFYLKYFSEAYKISEWPFGEMLNLKNCERLLSLMIKEVDVRVNFTLFQHLKILSSVNLIRYYKGYSAVYDNKKTSHRFSQLIQSSLEIQDLSRLFYLKFGLYLDETTIAEMFSNHVNDQLEIGYAFDSIKQDSPTGCRKVTNWVHLLDELEIRLNLSVTNKYEVAVILHNTTVLKEEDITANYLFFDYKKSYLNFYKQEHPHLYKAFVAGVEKLMRSEKEPISKELTNQLIYAFFITWENSFLKVNQKDEKIRLLVIERSFNSVGNFLKKYIGEFFSITNFNELDALTIDLEEIEKQYDVIVTDVMVGKSDELEIFFFYKMIPEAIIDKLNCVFKHQLCRQEGHHHHHH,not soluble
5,MSMKGKETMSKQNEKLVVGKLGSSYGIRGWLKVFSYTDNPESIFDYSPWYIDQKGEWVEYKVEGWKRHNKGWVVKLQGLDVREDAHLLTNFEIAIDPASLPELSEDEFYWRELFGMQVVTTNGYDLGVVTDMMETGSNDVLVVKANLKDAFGQKERLIPFLEEQVIKVVDRQAQRIEVDWDPAF,soluble
6,MSMKTTQEINKEDEELCNESKKFMDVYYDVMDRKREKIGFLYTQVSNAVWNGNPINGYDSICEFMKALPSTQHDIQSLDAQRLPEGVTGDMSGGMLLNVAGAVTVDGDSKRAFTQTLLLGVEDGKYKVKSDRFRYVD,not soluble
7,MSNFEKKYILELNDALSHLNHNSTSFDLLKVLISWLSNDIVIDKFKILGYDFSKYIEMNPDDYPVEKSILNREEIIYLKNNIYRKISSGNFKFQYFVQYIRDILEYLFIEHIERVCPYCEWGEMQKLEEQNTHETVYLCTQCGCAFYNDNSQFLLKTPLTIPMKRDEFK,not soluble

# Source: the DeepSol protein solubility set
